No end group written: not given here. *: point of attachment. FITC = O=C1OC2(c3ccc(O)cc3Oc3cc(O)ccc32)c2ccc(NC(=S)*)cc21
Target: yeast-displayed E4 peptide
Experiment: flow cytometry on cells; E4 displayed on yeast cells; FITC-K4-TAMRA added at 100 nM, 15 min, 4 °C, PBS containing 5% immunoblock, two washings; 488 nm laser, 525/50 and 585/30 filters

Binder {FITC}-KIAALKEKIAALKEKIAALKEKIAALKEC(5‑TAMRA C6 maleimide) [FITC-K4-TAMRA] has a mean FITC and TAMRA fluorescence of 10000.
